The values that follow come from patent publication US20240301022A1 (published 2024).

For orientation: Kd means the constant that tells how readily two partners part at equilibrium. Low values mean tighter binding, high ones weaker binding.

The assay has as its target human β1-adrenergic receptor (human, UniProt P08588 1-477). Put plainly: radioligand saturation binding, transfected CHO-K1.

Chain of human β1-adrenergic receptor (P08588 whole entry): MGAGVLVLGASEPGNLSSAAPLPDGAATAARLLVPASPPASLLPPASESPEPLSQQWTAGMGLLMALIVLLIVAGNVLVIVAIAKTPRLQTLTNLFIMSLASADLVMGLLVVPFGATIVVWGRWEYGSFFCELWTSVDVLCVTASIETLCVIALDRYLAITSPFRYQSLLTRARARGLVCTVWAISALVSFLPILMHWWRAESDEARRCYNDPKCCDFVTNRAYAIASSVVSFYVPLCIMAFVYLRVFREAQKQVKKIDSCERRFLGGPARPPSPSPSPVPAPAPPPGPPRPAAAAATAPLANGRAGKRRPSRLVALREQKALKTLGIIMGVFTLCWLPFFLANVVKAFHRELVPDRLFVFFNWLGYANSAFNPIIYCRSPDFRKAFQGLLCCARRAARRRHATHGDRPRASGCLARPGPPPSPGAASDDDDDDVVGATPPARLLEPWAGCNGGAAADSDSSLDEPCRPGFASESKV

B1: recombinant human zinc-α2-glycoprotein (ZAG) (ligand)
chain: QENQDGRYSLTYIYTGLSKHVEDVPAFQALGSLNDLQFFRYNSKDRKSQPMGLWRQVEGMEDWKEDSQLQKAREDMETLKDIVEYYNDSNGSHVLQGRFGCEIENNRSSGAFWKYYYDGKDYIEFNKEIPAWVPFDPAAQITKQKWEAEPVYVQRAKAYLEEECPATLRKYLKYSKNILDRQDPPSVVVTSHQAPGEKKKLKCLAYDFYPGKIDVHWTRAGQVQEPELRGDVLHNGNGTYQSWVVVAVPPQDTAPYSCHVQHSSLAQPLVVPWEAS
modifications: 125I label (iodo bead labelling) in the membrane binding studies; labelled residues not stated
B1 returned a dissociation constant Kd of 493 nM.
